Results from IntAct's records for PubMed 12782684.

B1: Ras-like protein 2 (Saccharomyces cerevisiae), P01120 (parent)
chain: MPLNKSNIREYKLVVVGGGGVGKSALTIQLTQSHFVDEYDPTIEDSYRKQVVIDDEVSILDILDTAGQEEYSAMREQYMRNGEGFLLVYSITSKSSLDELMTYYQQILRVKDTDYVPIVVVGNKSDLENEKQVSYQDGLNMAKQMNAPFLETSAKQAINVEEAFYTLARLVRDEGGKYNKTLTENDNSKQTSQDTKGSGANSVPRNSGGHRKMSNAANGKNVNSSTTVVNARNASIESKTGLAGNQATNGKTQTDRTNIDNSTGQAGQANAQSANTVNNRVNNNSKAGQVSNAKQARKQQAAPGGNTSEASKSGSGGCCIIS
partner: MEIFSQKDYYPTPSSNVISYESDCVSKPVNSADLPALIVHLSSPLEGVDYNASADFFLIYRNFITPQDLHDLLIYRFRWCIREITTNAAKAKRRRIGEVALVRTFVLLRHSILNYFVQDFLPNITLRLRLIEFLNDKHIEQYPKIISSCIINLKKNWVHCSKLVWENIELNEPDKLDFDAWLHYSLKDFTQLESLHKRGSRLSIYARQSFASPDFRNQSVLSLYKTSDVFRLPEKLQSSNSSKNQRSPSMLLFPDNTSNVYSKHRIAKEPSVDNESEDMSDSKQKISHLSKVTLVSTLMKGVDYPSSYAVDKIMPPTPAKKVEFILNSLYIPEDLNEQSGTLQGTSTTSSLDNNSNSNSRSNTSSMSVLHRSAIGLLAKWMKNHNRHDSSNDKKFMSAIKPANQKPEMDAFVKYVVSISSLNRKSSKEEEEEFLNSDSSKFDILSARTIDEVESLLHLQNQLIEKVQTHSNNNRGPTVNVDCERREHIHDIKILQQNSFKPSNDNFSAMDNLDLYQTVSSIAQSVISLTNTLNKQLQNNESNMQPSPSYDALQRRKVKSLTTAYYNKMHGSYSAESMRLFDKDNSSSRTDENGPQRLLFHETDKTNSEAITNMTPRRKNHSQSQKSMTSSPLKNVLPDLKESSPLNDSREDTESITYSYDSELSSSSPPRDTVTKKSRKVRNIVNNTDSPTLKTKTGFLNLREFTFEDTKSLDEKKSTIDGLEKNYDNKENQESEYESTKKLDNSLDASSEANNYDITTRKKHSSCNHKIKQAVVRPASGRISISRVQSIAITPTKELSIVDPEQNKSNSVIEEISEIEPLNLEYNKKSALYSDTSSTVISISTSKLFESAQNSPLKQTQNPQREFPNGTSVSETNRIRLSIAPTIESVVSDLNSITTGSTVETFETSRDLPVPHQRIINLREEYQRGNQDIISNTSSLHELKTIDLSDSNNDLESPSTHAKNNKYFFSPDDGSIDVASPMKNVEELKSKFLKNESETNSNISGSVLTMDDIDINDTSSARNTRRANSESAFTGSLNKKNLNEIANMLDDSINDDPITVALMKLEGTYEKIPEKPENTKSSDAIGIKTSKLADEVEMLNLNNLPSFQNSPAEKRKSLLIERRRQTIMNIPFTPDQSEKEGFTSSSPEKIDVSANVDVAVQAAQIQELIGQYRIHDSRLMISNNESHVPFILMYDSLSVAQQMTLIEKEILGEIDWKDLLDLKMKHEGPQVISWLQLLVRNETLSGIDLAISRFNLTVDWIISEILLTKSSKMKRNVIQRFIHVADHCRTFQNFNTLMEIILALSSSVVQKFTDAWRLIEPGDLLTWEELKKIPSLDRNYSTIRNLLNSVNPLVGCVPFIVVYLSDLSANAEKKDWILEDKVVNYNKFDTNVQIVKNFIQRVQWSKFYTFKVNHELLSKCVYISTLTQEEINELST

Variants of: B1
Conditions: with lte1_yeast LTE1, P07866

| Variant | effect of a mutation on the interaction |
| --- | --- |
| MPLNKSNIREYKLVVVGGVGVGKSALTIQLTQSHFVDEYDPTIEDSYRKQVVIDDEVSILDILDTAGQEEYSAMREQYMRNGEGFLLVYSITSKSSLDELMTYYQQILRVKDTDYVPIVVVGNKSDLENEKQVSYQDGLNMAKQMNAPFLETSAKQAINVEEAFYTLARLVRDEGGKYNKTLTENDNSKQTSQDTKGSGANSVPRNSGGHRKMSNAANGKNVNSSTTVVNARNASIESKTGLAGNQATNGKTQTDRTNIDNSTGQAGQANAQSANTVNNRVNNNSKAGQVSNAKQARKQQAAPGGNTSEASKSGSGGCCIIS [G19V] | increasing interaction |

Variants of: B1
Conditions: with lte1_yeast LTE1, P07866
Remark: another data set of the same source

| Variant | effect of a mutation on the interaction |
| --- | --- |
| MPLNKSNIREYKLVVVGGGGVGKSALTIQLTQSHFVDEYDPTIEDSYRKQVVIDDEVSILDILDTAGQEEYSAMREQYMRNGEGFLLVYSITSKSSLDELMTYYQQILRVKDTDYVPIVVVGNKSDLENEKQVSYQDGLNMAKQMNAPFLETSAKQAINVEEAFYTLARLVRDEGGKYNKTLTENDNSKQTSQDTKGSGANSVPRNSGGHRKMSNAANGKNVNSSTTVVNARNASIESKTGLAGNQATNGKTQTDRTNIDNSTGQAGQANAQSANTVNNRVNNNSKAGQVSNAKQARKQQAAPGGNTSEASKSGSGGSCIIS [C318S] | disrupting interaction |

Variants of: B1
Conditions: with lte1_yeast LTE1, P07866
Remark: another data set of the same source

| Variant | effect of a mutation on the interaction |
| --- | --- |
| MPLNKSNIREYKLVVVGGGGVNKSALTIQLTQSHFVDEYDPTIEDSYRKQVVIDDEVSILDILDTAGQEEYSAMREQYMRNGEGFLLVYSITSKSSLDELMTYYQQILRVKDTDYVPIVVVGNKSDLENEKQVSYQDGLNMAKQMNAPFLETSAKQAINVEEAFYTLARLVRDEGGKYNKTLTENDNSKQTSQDTKGSGANSVPRNSGGHRKMSNAANGKNVNSSTTVVNARNASIESKTGLAGNQATNGKTQTDRTNIDNSTGQAGQANAQSANTVNNRVNNNSKAGQVSNAKQARKQQAAPGGNTSEASKSGSGGCCIIS [G22N] | disrupting interaction |
